Measurements reported in PMC11574045, “A cofactor-induced repressive type of transcription factor condensation can be induced by synthetic peptides to suppress tumorigenesis” (The EMBO Journal, 2024).

Tested on: HEK293FT cells transfected with TF library
Assay: Screening of TF condensates based on fluorescent puncta
Format: cell-based
Conditions: Figure 1B numerical data; TF library screen, one value per transcriptional factor
Method in brief: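 Cells were seeded onto plasmid/PEI-loaded wells (plasmid 1.6 μg/ml final) and grown 60 h. Medium with or without glucose followed for 12 h. Fixed, permeabilized cells were stained against Flag or GAL4 tags, and condensate puncta were quantified from 50 random fields per well.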

Molecule	Z score of condensed fraction
BATF2 (protein, UniProt Q8N1L9 1-274, looked up) Basic leucine zipper …: MHLCGGNGLLTQTDPKEQQRQLKKQKNRAAAQRSRQKHTDKADALHQQHESLEKDNLALRKEIQSLQAELAWWSRTLHVHERLCPMDCASCSAPGLLGCWDQAEGLLGPGPQGQHGCREQLELFQTPGSCYPAQPLSPGPQPHDSPSLLQCPLPSLSLGPAVVAEPPVQLSPSPLLFASHTGSSLQGSSSKLSALQPSLTAQTAPPQPLELEHPTRGKLGSSPDNPSSALGLARLQSREHKPALSAATWQGLVVDPSPHPLLAFPLLSSAQVHF	-1.083
REXO4 (protein, UniProt Q9GZR2 1-422, looked up) RNA exonuclease 4: MGKAKVPASKRAPSSPVAKPGPVKTLTRKKNKKKKRFWKSKAREVSKKPASGPGAVVRPPKAPEDFSQNWKALQEWLLKQKSQAPEKPLVISQMGSKKKPKIIQQNKKETSPQVKGEEMPAGKDQEASRGSVPSGSKMDRRAPVPRTKASGTEHNKKGTKERTNGDIVPERGDIEHKKRKAKEAAPAPPTEEDIWFDDVDPADIEAAIGPEAAKIARKQLGQSEGSVSLSLVKEQAFGGLTRALALDCEMVGVGPKGEESMAARVSIVNQYGKCVYDKYVKPTEPVTDYRTAVSGIRPENLKQGEELEVVQKEVAEMLKGRILVGHALHNDLKVLFLDHPKKKIRDTQKYKPFKSQVKSGRPSLRLLSEKILGLQVQQAEHCSIQDAQAAMRLYVMVKKEWESMARDRRPLLTAPDHCSDDA	-0.3654
RHOXF1 (protein, UniProt Q8NHV9 1-184, looked up) Rhox homeobox family member 1: MARSLVHDTVFYCLSVYQVKISPTPQLGAASSAEGHVGQGAPGLMGNMNPEGGVNHENGMNRDGGMIPEGGGGNQEPRQQPQPPPEEPAQAAMEGPQPENMQPRTRRTKFTLLQVEELESVFRHTQYPDVPTRRELAENLGVTEDKVRVWFKNKRARCRRHQRELMLANELRADPDDCVYIVVD	-0.9364
RBM14 (protein, UniProt Q96PK6 1-669, looked up) RNA-binding protein 14: MKIFVGNVDGADTTPEELAALFAPYGTVMSCAVMKQFAFVHMRENAGALRAIEALHGHELRPGRALVVEMSRPRPLNTWKIFVGNVSAACTSQELRSLFERRGRVIECDVVKDYAFVHMEKEADAKAAIAQLNGKEVKGKRINVELSTKGQKKGPGLAVQSGDKTKKPGAGDTAFPGTGGFSATFDYQQAFGNSTGGFDGQARQPTPPFFGRDRSPLRRSPPRASYVAPLTAQPATYRAQPSVSLGAAYRAQPSASLGVGYRTQPMTAQAASYRAQPSVSLGAPYRGQLASPSSQSAAASSLGPYGGAQPSASALSSYGGQAAAASSLNSYGAQGSSLASYGNQPSSYGAQAASSYGVRAAASSYNTQGAASSLGSYGAQAASYGAQSAASSLAYGAQAASYNAQPSASYNAQSAPYAAQQAASYSSQPAAYVAQPATAAAYASQPAAYAAQATTPMAGSYGAQPVVQTQLNSYGAQASMGLSGSYGAQSAAAATGSYGAAAAYGAQPSATLAAPYRTQSSASLAASYAAQQHPQAAASYRGQPGNAYDGAGQPSAAYLSMSQGAVANANSTPPPYERTRLSPPRASYDDPYKKAVAMSKRYGSDRRLAELSDYRRLSESQLSFRRSPTKSSLDYRRLPDAHSDYARYSGSYNDYLRAAQMHSGYQRRM	0.5955
RFX4 (protein, UniProt Q33E94 1-735, looked up) Transcription factor RFX4: MHCGLLEEPDMDSTESWIERCLNESENKRYSSHTSLGNVSNDENEEKENNRASKPHSTPATLQWLEENYEIAEGVCIPRSALYMHYLDFCEKNDTQPVNAASFGKIIRQQFPQLTTRRLGTRGQSKYHYYGIAVKESSQYYDVMYSKKGAAWVSETGKKEVSKQTVAYSPRSKLGTLLPEFPNVKDLNLPASLPEEKVSTFIMMYRTHCQRILDTVIRANFDEVQSFLLHFWQGMPPHMLPVLGSSTVVNIVGVCDSILYKAISGVLMPTVLQALPDSLTQVIRKFAKQLDEWLKVALHDLPENLRNIKFELSRRFSQILRRQTSLNHLCQASRTVIHSADITFQMLEDWRNVDLNSITKQTLYTMEDSRDEHRKLITQLYQEFDHLLEEQSPIESYIEWLDTMVDRCVVKVAAKRQGSLKKVAQQFLLMWSCFGTRVIRDMTLHSAPSFGSFHLIHLMFDDYVLYLLESLHCQERANELMRAMKGEGSTAEVREEIILTEAAAPTPSPVPSFSPAKSATSVEVPPPSSPVSNPSPEYTGLSTTGAMQSYTWSLTYTVTTAAGSPAENSQQLPCMRNTHVPSSSVTHRIPVYPHREEHGYTGSYNYGSYGNQHPHPMQSQYPALPHDTAISGPLHYAPYHRSSAQYPFNSPTSRMEPCLMSSTPRLHPTPVTPRWPEVPSANTCYTSPSVHSARYGNSSDMYTPLTTRRNSEYEHMQHFPGFAYINGEASTGWAK	-0.3239
RHOXF2 (protein, UniProt Q9BQY4 1-288, looked up) Rhox homeobox family member 2: MEPPDQCSQYMTSLLSPAVDDEKELQDMNAMVLSLTEEVKEEEEDAQPEPEQGTAAGEKLKSAGAQGGEEKDGGGEEKDGGGAGVPGHLWEGDLEGTSGSDGNVEDSDQSEKEPGQQYSRPQGAVGGLEPGNAQQPNVHAFTPLQLQELERIFQREQFPSEFLRRRLARSMNVTELAVQIWFENRRAKWRRHQRALMARNMLPFMAVGQPVMVTAAEAITAPLFISGMRDDYFWDHSHSSSLCFPMPPFPPPSLPLPLMLLPPMPPAGQAEFGPFPFVIVPSFTFPNV	1.459
RFX1 (protein, UniProt P22670 1-979, looked up) MHC class II regulatory …: MATQAYTELQAAPPPSQPPQAPPQAQPQPPPPPPPAAPQPPQPPTAAATPQPQYVTELQSPQPQAQPPGGQKQYVTELPAVPAPSQPTGAPTPSPAPQQYIVVTVSEGAMRASETVSEASPGSTASQTGVPTQVVQQVQGTQQRLLVQTSVQAKPGHVSPLQLTNIQVPQQALPTQRLVVQSAAPGSKGGQVSLTVHGTQQVHSPPEQSPVQANSSSSKTAGAPTGTVPQQLQVHGVQQSVPVTQERSVVQATPQAPKPGPVQPLTVQGLQPVHVAQEVQQLQQVPVPHVYSSQVQYVEGGDASYTASAIRSSTYSYPETPLYTQTASTSYYEAAGTATQVSTPATSQAVASSGSMPMYVSGSQVVASSTSTGAGASNSSGGGGSGGGGGGGGGGGGGGSGSTGGGGSGAGTYVIQGGYMLGSASQSYSHTTRASPATVQWLLDNYETAEGVSLPRSTLYCHYLLHCQEQKLEPVNAASFGKLIRSVFMGLRTRRLGTRGNSKYHYYGLRIKASSPLLRLMEDQQHMAMRGQPFSQKQRLKPIQKMEGMTNGVAVGQQPSTGLSDISAQVQQYQQFLDASRSLPDFTELDLQGKVLPEGVGPGDIKAFQVLYREHCEAIVDVMVNLQFTLVETLWKTFWRYNLSQPSEAPPLAVHDEAEKRLPKAILVLLSKFEPVLQWTKHCDNVLYQGLVEILIPDVLRPIPSALTQAIRNFAKSLESWLTHAMVNIPEEMLRVKVAAAGAFAQTLRRYTSLNHLAQAARAVLQNTAQINQMLSDLNRVDFANVQEQASWVCRCEDRVVQRLEQDFKVTLQQQNSLEQWAAWLDGVVSQVLKPYQGSAGFPKAAKLFLLKWSFYSSMVIRDLTLRSAASFGSFHLIRLLYDEYMYYLIEHRVAQAKGETPIAVMGEFANLATSLNPLDPDKDEEEEEEEESEDELPQDISLAAGGESPALGPETLEPPAKLARTDARGLFVQALPSS	-0.4637
RFC1 (protein, UniProt P35251 1-1148, looked up) Replication factor C subunit 1: MDIRKFFGVIPSGKKLVSETVKKNEKTKSDEETLKAKKGIKEIKVNSSRKEDDFKQKQPSKKKRIIYDSDSESEETLQVKNAKKPPEKLPVSSKPGKISRQDPVTYISETDEEDDFMCKKAASKSKENGRSTNSHLGTSNMKKNEENTKTKNKPLSPIKLTPTSVLDYFGTGSVQRSNKKMVASKRKELSQNTDESGLNDEAIAKQLQLDEDAELERQLHEDEEFARTLAMLDEEPKTKKARKDTEAGETFSSVQANLSKAEKHKYPHKVKTAQVSDERKSYSPRKQSKYESSKESQQHSKSSADKIGEVSSPKASSKLAIMKRKEESSYKEIEPVASKRKENAIKLKGETKTPKKTKSSPAKKESVSPEDSEKKRTNYQAYRSYLNREGPKALGSKEIPKGAENCLEGLIFVITGVLESIERDEAKSLIERYGGKVTGNVSKKTNYLVMGRDSGQSKSDKAAALGTKIIDEDGLLNLIRTMPGKKSKYEIAVETEMKKESKLERTPQKNVQGKRKISPSKKESESKKSRPTSKRDSLAKTIKKETDVFWKSLDFKEQVAEETSGDSKARNLADDSSENKVENLLWVDKYKPTSLKTIIGQQGDQSCANKLLRWLRNWQKSSSEDKKHAAKFGKFSGKDDGSSFKAALLSGPPGVGKTTTASLVCQELGYSYVELNASDTRSKSSLKAIVAESLNNTSIKGFYSNGAASSVSTKHALIMDEVDGMAGNEDRGGIQELIGLIKHTKIPIICMCNDRNHPKIRSLVHYCFDLRFQRPRVEQIKGAMMSIAFKEGLKIPPPAMNEIILGANQDIRQVLHNLSMWCARSKALTYDQAKADSHRAKKDIKMGPFDVARKVFAAGEETAHMSLVDKSDLFFHDYSIAPLFVQENYIHVKPVAAGGDMKKHLMLLSRAADSICDGDLVDSQIRSKQNWSLLPAQAIYASVLPGELMRGYMTQFPTFPSWLGKHSSTGKHDRIVQDLALHMSLRTYSSKRTVNMDYLSLLRDALVQPLTSQGVDGVQDVVALMDTYYLMKEDFENIMEISSWGGKPSPFSKLDPKVKAAFTRAYNKEAHLTPYSLQAIKASRHSTSPSLDSEYNEELNEDDSQSDEKDQDAIETDAMIKKKTKSSKPSKPEKDKEPRKGKGKSSKK	2.906
RFXDC1 (protein, UniProt Q8HWS3 1-928, looked up) DNA-binding protein RFX6: MAKVPELEDTFLQAQPAPQLSPGIQEDCCVQLLGKGLLVYPEETVYLAAEGQPGGEQGGGEKGEDPELPGAVKSEMHLNNGNFSSEEEDADNHDSKTKAADQYLSQKKTITQIVKDKKKQTQLTLQWLEENYIVCEGVCLPRCILYAHYLDFCRKEKLEPACAATFGKTIRQKFPLLTTRRLGTRGHSKYHYYGIGIKESSAYYHSVYSGKGLTRFSGSKLKNEGGFTRKYSLSSKTGTLLPEFPSAQHLVYQGCISKDKVDTLIMMYKTHCQCILDNAINGNFEEIQHFLLHFWQGMPDHLLPLLENPVIIDIFCVCDSILYKVLTDVLIPATMQEMPESLLADIRNFAKNWEQWVVSSLENLPEALTDKKIPIVRRFVSSLKRQTSFLHLAQIARPALFDQHVVNSMVSDIERVDLNSIGSQALLTISGSTDTESGIYTEHDSITVFQELKDLLKKNATVEAFIEWLDTVVEQRVIKTSKQNGRSLKKRAQDFLLKWSFFGARVMHNLTLNNASSFGSFHLIRMLLDEYILLAMETQFNNDKEQELQNLLDKYMKNSDASKAAFTASPSSCFLANRNKGSMVSSDAVKNESHVETTYLPLPSSQPGGLGPALHQFPAGNTDNMPLTGQMELSQIAGHLMTPPISPAMASRGSVINQGPMAGRPPSVGPVLSAPSHCSTYPEPIYPTLPQANHDFYSTSSNYQTVFRAQPHSTSGLYPHHTEHGRCMAWTEQQLSRDFFSGSCAGSPYNSRPPSSYGPSLQAQDSHNMQFLNTGSFNFLSNTGAASCQGATLPPNSPNGYYGSNINYPESHRLGSMVNQHVSVISSIRSLPPYSDIHDPLNILDDSGRKQTSSFYTDTSSPVACRTPVLASSLQTPIPSSSSQCMYGTSNQYPAQETLDSHGTSSREMVSSLPPINTVFMGTAAGGT	3.216
